# B1: Nematostella vectensis TRPM2 channel (transient receptor potential melastatin 2) (natural protein, UniProt A7T1N0 1-1551, looked up)
# chain: MGKDSFTPLYDGGDSSHVHLNKFGSNQLSQSKKSWIARNFSRRECIRFVPKSHDVSRCKCGRPRERHSQQALESGQGSEEWNVASCTTKHPTNAYGEIDFEGYGGQKRAPYLRMSHDTDANLVITLMLKRWNLEIPNLVISVTGGAKSFVLKPRLREMFRRGLIKAAKTTGAWIITGGTNTGVMKHVGEAVKEQQLMFGSDTQVNVIGIATWGIVDKQSDLISEKNGKYPALYSMEPTPGHQGAMLDPNHSHFFLVDDGTEGKYGVEIGMRSRIEEAIMKVKTDSRSEAGSIGVPVVLLVLEGGPNTVATMYELIKKKVPAVVIDGSGRAASVVGFAYNHTIKRNVDGQTINVIDPQYEDEVRAKVVEVFGAKGADKTYSMIKDVLEDEKMISVYSLDGEISQDIDLAILKALLKANRSSPVAQLNLALAWNRIDLAKSDIFTEEQQWTTETLSAAMLTALLDDKAEFAELFLQNGLSMREFLSLDILCKLYAEVPGNTTIKPLLQKEMGKRQVKTIDMDVVGEVIEELMGDMFESYYRKDGHYFGELASYAEGLVLKNRKSSKDLLANINRIDPLPTPYLDVFLWAVLCNRRELARVLWEAGREPMAAALMASRLLKRMASRAQEDNTITDISSDLYDHARLFEERAVGVLDECFNENETLSQTLLVRELDHYSRMTALELAVSAESQDFIAHTSCQVLLTRLWMGTMAMNTRWWKVLVCLYLPVLIFPIIYFVPDEQHERQAAEREHQKSLNQKSSKVKSHKEKNDAPVVPVYRSKEEKAVSNDEEARVGTENEEEDFQLEDYIPEIREDDSMEVIMRNKKLGFCDRIMHFYSAPFSKFVGNVVGYLAFIFLYAYVVLFNFPRFDPAKTLGGIHPTEIVLYFWVFTILIEEIRQLAAKPPKYIKDKVSVYFSDTWNFVDIFSLTVFIIAIILRFFTNSRIFTASRIILSLDIIFFIVRSLQIFSVNRLLGPKLVMIQKMMQDLAQFIIILAVFTIAYGIALHAVMFPSPGIYARNNTWVTITSVVQYPYWQMYGELFLDEIQGEKPKEFGEVDPDGRWLSPLLLAIYMVFTNILLLNLLIAIFNYTFERVQEDSDKVWKFQRYDLVQEYHSRPVFAPPLVLLGHILIFIRWVWRMCRCGHPPRGSTMKIGLSPAEMEQMDNWEFQAAEMYIHQQQQKNSGTLEERVRALGDRVDCINSQLNRVLDSMSGTRAHALTDGNGLEGGHDSEGRLARMEVELSSNSESLQKILALLQQQPPVKGQAAVPIQLTLLHYKARSSPYPGSTAKRFAVQDNMVDWQVPFPDYKPVNYTAPVVLANPVWADKDLMAMSPRPELPYNQMDHTCNVNRVSYNGTYVVKDGLPLNPMGRTGMQGRGLLGRFGPNHAADPVVTRWKRTSAGVMLQGGKKVLEFVAIQRKDNNQWAIPGGMVEPGQLVTQALKAEFGEEAMAKLNVSQEEKERIAKQIERLFQQGQEIYKGYVDDPRNTDNAWMETVAVNFHDDKGDLFGDITLQAGDDAAAVRWQRVSGNIPLYASHVSILEKVAKMRDAAF
# modifications: two N-acetylglucosamines attached to N1017
# notes: TRPM2 of Nematostella vectensis, full-length protein; synthesized gene; the C-terminal NUDT9H domain is residues 1271-1551; model holds residues 6-23, 41-51, 86-546, 573-755, 812-1136 and 1148-1210; the NUDT9H domain is present in the protein but not seen in the map; also called nvTRPM2; not shown: GFP, C-terminal, cleaved
# Target: the molecule itself
# Experiment: cryo-EM structure; purified nvTRPM2 in Buffer A (20 mM Tris-HCl pH 8.0, 150 mM NaCl, 0.06% digitonin, 1 mM DTT), 5 mg/ml, trace amounts of Ca2+, no ADPR; C4 symmetry
protein,measurement,value
B1,stoichiometry N,4
